Tests used:
[1] = system: MS2 coat protein; experiment: apparent KD of MS2 coat protein, switch OFF state (with FMN for OFF switches, without FMN for ON switches); designed switch direction (-1 OFF switch, 1 ON switch): -1; higher = weaker reporter binding; settings: FMN input: 0 or 200 uM; Eterna round: R93 (includes R88 designs)
Procedure, shortened: (§1)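 For every design, apparent KD is the median of normalised binding-curve fits from its clusters. The RNA switches were transcribed on-chip from Illumina sequencing clusters and titrated with SNAP-549-labelled MS2 coat protein (twofold steps, 0.7 or 1.5 nM to 3 µM; 0.8–1.5 h to 10–20 min per step). Titrations used 100 mM Tris-HCl pH 7.5, 80 mM KCl, 4 mM MgCl2, without or with constant ligand.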

[2] = system: MS2 coat protein; experiment: apparent KD of MS2 coat protein, switch ON state; designed switch direction (-1 OFF switch, 1 ON switch): -1; higher = weaker reporter binding; settings: FMN input: 0 or 200 uM; Eterna round: R93 (includes R88 designs)
Procedure, shortened: as §1

Sequence | apparent KD of MS2 coat protein [1] [nM] | apparent KD of MS2 coat protein [2] [nM]
AAAAGACAUGAGGAUCACCCAUGUAAGGAUAUGCAGAGAGCAAAACAAAAAAAAAAAAGCAGAAGGUACAUAAA [Design2] | 65.1 | 55.4
AAAAAGGUAGGAUAUACGAAAAAAAAGGGUAGAAAAAUAAAACAUGAGGAUCACCCAUGUAGAAGGACCAAAAA [Ex 2 sub 1 70% 1] | 86.5 | 25.8
AAGAACCGAGGAUAUACAUGAGGAUCACCCAUGUAAAAGAAAGAGGGAAAAGAGAAAAGUAGAAGGCGGAAGAA [Berenice I] | 57.4 | 26.2
AACAGUACAGGAUAUACAUGAGGAUCACCCAUGUGAGAAUUAAGUGGCGUACCACAAAGUAGAAGGGUACUGGA [JL Maslow Revisted mod 16] | 173 | 35
AAAAAACAUGAGGAUCACCCAUGUAAGGAUAUGCUGAAAAAAACCUGGAAAACAGGCAGCAGAAGGUACAAAAA [66%, Wbt, 36] | 35.6 | 23.9
AAAAGACAUGAGGAUCACCCAUGUGAGGAUAUGCAAAACCCAUAUAAAAAGGGAAAAAGCAGAAGGUACAAAAA [wbt round 1 mod 13] | 40.5 | 29.6
AAAAGUACAGGAUAUACAUGAGGAUCACCCAUGUAGAAAGGAAGUGUAAAAAAAAAGUGUAGAAGGGUGCAUGA [MS2 Riboswitches On Chip Exclusion 3 wbt1] | 21.2 | 22.5
AAAAAGUGAGGAUAUUCGGAUAGGAAAACGAAAACCUAUCCGAAGAAGGCACAUGAGGAUCACCCAUGUGAAAG [Mat - Exaclusion 4 - Eli mod - D42] | 29.4 | 28
AAGAAGUAAGGAUAUGCUGCUCGUCACAAAAGUGAUGAGUAGCAGAAGGUACAUGAGGAUCACCCAUGUUAAGA [JL eternac mod 4] | 20.6 | 24.4
GAAAAAGGAGGAUAUACGAACAUGUCAAAAGACGUGAAGGGACAUGAGGAUCACCCAUGUAGAAGGCUUAAAAG [Mat - Exclusion 2 - JL mod - D94] | 15.7 | 37.4
AAGAAGAGAGGAUAUACAAAAUAAAAGAAAAGAAAGAAAGAACAUGAGGAUCACCCAUGUAGAAGGCUCAAGAA [Hotepibre Qemau Siharnedjheritef] | 28.4 | 25.6
AAAAACCGAGGAUAUACAUGAGGAUCACCCAUGUGAAAAAAAAAAAAGAGGAAAAGAUGUAGAAGGCGGAAAAA [65%, Moding Exclusion3-cac2, 17] | 44.1 | 33.9
AAGAACGGAGGAUAUACAUGAGGAUCACCCAUGUAAAAGAAAGAAAAGGGAAAGAAAAGUAGAAGGCCGAAGAA [Djeserkare Amenhotep I] | 51.3 | 39.8
AAAAAGUCAGGAUAUGCAGACAAAGCAAAAAAGCAAUGUCUGCAGAAGGGACAUGAGGAUCACCCAUGUAAAAA [Ex 4 May 9] | 44.6 | 57.7
AAGAAGUGAGGAUAUCGAAGACUGUCGAAAAGACAGUCGAACGAGAAGGCACAUGAGGAUCACCCAUGUGAGGG [Marsurpial 65% 3] | 69.9 | 130
AAGAAACAUGAGGAUCACCCAUGUCAGGAUAUCGAAGAAAGAAAGAAAGAAAGAAGAACGAGAAGGGACAAAGG [Gaius Iulius Aquila] | 60.4 | 44.4
AAAAGCAAAGGAUAUACAUGAGGAUCACCCAUGUAAAAAAGAAAAGAGUAUAUGGCAUGUAGAAGGUUGCGUGG [Rabisoxe] | 54.9 | 26.2
AAACGUUGAGGAUAUACAGAAGGGUAUAAAUCAAAAAAAACACAUGAGGAUCACCCAUGUAGAAGGCAACGAAA | 50.4 | 98.9
AAAAAACAUGAGGAUCACCCAUGUCAGGAUAUGCGAAGCAAAAAAAAAAAAAAGCGAAGCAGAAGGGACUAAAA [Exclusion1 Malc#5] | 32.9 | 38.2
AAAACACAUGAGGAUCACCCAUGUUAGGAUAUCCACGCUACUAAUCCUAAACAAAGCGGGAGAAGGAACGUGGC [Xerereonan] | 17.5 | 20.9
AACAUGUCAGGAUAUAAAAGAAAAGAAAAGAAAGAAAAGAAUUAGAAGGGACAUGAGGAUCACCCAUGUAAGAA [EteRNA is fun!] | 28.9 | 33
AAAAAAAAAGGAUAUAAAAAAAAAAGUCAGGAUAUAGGAAACUAGAAGGGACAUGAGGAUCACCCAUGUAAAAA [Meechl Ex4 R2 m0] | 40.8 | 63.5
ACUUGACAUGAGGAUCACCCAUGUCAGGAUAUAGUACGACAAAUAAAUAAAAGUUCUACUAGAAGGGAUAUGGA [Amethyst 53] | 15.5 | 17

Sequence | apparent KD of MS2 coat protein [1] [nM] | apparent KD of MS2 coat protein [2] [nM]
AAAAAGGUAGGAUAUACGAAAAAAAAAGGUGAAAAAAAAAAACAUGAGGAUCACCCAUGUAGAAGGACCAAAAA [Ex 2 sub 1 70% 2] | 76.7 | 39.3
ACCUGACAUGAGGAUCACCCAUGUCAGGAUAUGACUUCGAAAAUAAAAUAAAACGAUGUCAGAAGGGACAUGGG [Design 71: Sub-opt PB] | 15.3 | 21.8
AAGAACAAAGGAUAUACAAGGAAGAAAGAAAAGAAAAGAAAACAUGAGGAUCACCCAUGUAGAAGGUUGUAGAA [EteRNA is fun!] | 20.7 | 24.7
AAAAAACAUGAGGAUCACCCAUGUGAGGAUAUGCAAAAGAAAAGAAAAGAAAGAAGAAGCAGAAGGUACAAGAA [Shepseskare Isi] | 27.7 | 22.6
AAUGGUGCAGGAUAUACAUGAGGAUCACCCAUGUAGAUCAGACAUAUGGUCGAAACAUGUAGAAGGGCACCAAA [Ex 3May 54] | 319 | 112
ACAGUUACAGGAUAUACAUGAAUAACUUCAAAGAAAACUCUACAUGAGGAUCACCCAUGUAGAAGGGUAACUGA [Ex2 Design 200 (fingers crossed): Random 18] | 18.8 | 14.3
AGAAAGUCAGGAUAUACGAAAGUGCGAAAGCACACAAGGGAACAUGAGGAUCACCCAUGUAGAAGGGACAAGAA [Diamond 78] | 91.7 | 70.9
AGGGAGUGAGGAUAUGCGAAAGAAAAAGAAGGAAAAAAAAAGCAGAAGGUACAUGAGGAUCACCCAUGUAAAAA [milkweed 7] | 16.9 | 26.5
AAGAAGUAAGGAUAUCGUGCUCGUCACAAAAGUGAUGAGUACGAGAAGGUACAUGAGGAUCACCCAUGUAAAGA [Opal 35] | 21.9 | 24.6
AAACCACAUGAGGAUCACCCAUGUCAGGAUAUGCAAACAACAAACAACAAACAACAAAGCAGAAGGGACAACAA [63%, Olong, 2] | 18 | 13.8
CAGGUAUGAGGAUAUACAUAGAUACAGACACAUGUUCAAGUACAUGAGGAUCACCCAUGUAGAAGGCAUAUAUG [Mat - Same state - Mayanna Mod - D106] | 35.1 | 22.3
AAAAAACAUGAGGAUCACCCAUGUGAGGAUAUGCUAUGGAAAAUAAAAAUAAAACAUAGCAGAAGGCACAAUGU [Denovo 5] | 85.2 | 50.9
AAGAAACGAGGAUAUACAUGAGGAUCACCCAUGUAAAAGAAAGAAAAGGGAAAGAAAAGUAGAAGGCGUAAGAA [Usermaatre-sekheperenre Ramesses V] | 37 | 30.4
AAAAAGUCAGGAUAUCGGAAAAUAAAAAUAAAAAAAAAAAACGAGAAGGGACAUGAGGAUCACCCAUGUAUGAC [Mat - Exclusion 4 - Mayanna - D113] | 39 | 45.2
GGAUGUCAAGGAUAUACAUGAGGAUCACCCAUGUGAGAGAAAAAAGUGAGAAAGAAAAGUAGAAGGUGGUGUCG [salish99-ex3-87] | 56.1 | 38.5
CCUCGACAUGAGGAUCACCCAUGUUAGGAUAUAUACAAACCCGAAAACCAAGGGCAAAAUAGAAGGAACGUGCA [Masoedma] | 19.2 | 14.8
GGUUGGCGAGGAUAUACAUGAGGAUCACCCAUGUGAGAGAAAAAAGUGAGAAAGAACAGUAGAAGGCGCUGACG [salish99-ex3-29] | 72.8 | 23.4
GUGUACAGAGGAUAUACUAAAGCAUGGAAACAUGCAAGAUCACAUGAGGAUCACCCAUGUAGAAGGCUGUACAC [Ex2: 741] | 529 | 62.3
AACAGAACAGGAUAUACAUGAGGAUCACCCAUGUCACAACAAAGCAGCGCAACACAAAGUAGAAGGGUUAUGGA [Ruby 14] | 40.9 | 31.8
CUCAUGUCAGGAUAUGUAGCAUGAUACGAAAGUAUCAUGCUACAGAAGGGACAUGAGGAUCACCCAUGUCAAAA [Ex4: 943] | 17.5 | 22.1
AAAAAGUCAGGAUAUAUGCGAAAAAUAAAAAAAAUAAAAGCAUAGAAGGGACAUGAGGAUCACCCAUGUUAAAA [Ex 4 May 16] | 26.6 | 36.6
AACAAACAUGAGGAUCACCCAUGUCAGGAUAUCCGAAAUAAAGAAACAAUAAUAAUAAGGAGAAGGGACUAAAU [Ex1 sub 2] | 34.1 | 35.5

Reference: the supplement of paper PMC9170038
